One molecule from PMC4837377 (Scientific Reports, 2016) can be followed below.

This assay deals with PA (residues 1-716) of influenza A virus RNA-dependent RNA-polymerase (influenza A virus …, UniProt P31343 1-716). The assay is described as follows: SEC-SAXS. Particulars: both partners purified.

A word on the stoichiometry N: it is the number of molecules, sites or subunits per partner or assembly.

B1: PB1(1-686) of influenza A virus RNA-dependent RNA-polymerase (domain or fragment)
chain: MDVNPTLLFLKVPAQNAISTTFPYTGDPPYSHGTGTGYTMDTVNRTHQYSEKGKWTTNTETGAAQLNPIDGPLPEDNEPSGYAQTDCVLEAMAFLEESHPGIFENSCLETMEVVQQTRVDRLTQGRQTYDWTLNRNQPAATALANTIEVFRSNGLIANESGRLIDFLKDVIESMDKEEMEITTHFQRKRRVRDNMTKKMVTQRTIGKKKQRVNKRSYLIRALTLNTMTKDAERGKLKRRAIATPGMQIRGFVYFVETLARSICEKLEQSGLPVGGNEKKAKLANVVRKMMTNSQDTELSFTITGDNTKWNENQNPRMFLAMITYITKNQPEWFRNILSIAPIMFSNKMARLGKGYMFESKRMKLRTQIPAEMLASIDLKYFNESTRKKIEKIRPLLIDGTASLSPGMMMGMFNMLSTVLGVSILNLGQKKYTKTTYWWDGLQSSDDFALIVNAPNHEGIQAGVDRFYRTCKLVGINMSKKKSYINRTGTFEFTSFFYRYGFVANFSMELPSFGVSGINESADMSIGVTVIKNNMINNDLGPATAQMALQLFIKDYRYTYRCHRGDTQIQTRRSFELKKLWEQTRSKAGLLVSDGGPNLYNIRNLHIPEVCLKWELMDEDYQGRLCNPLNPFVSHKEIESVNNAVVMPAHGPAKSMEYDAVATTHSWIPKRNRSILNTSQRGILEDE
As to B1, the “stoichiometry N” value is 1.
